Key:
[1] = molecular target: T1, EphA10 fused with human Fc (Homo sapiens, UniProt Q5JZY3); test: ELISA analysis of binding activity to EphA10; conditions: ELISA (FIG. 11, FIG. 20)
T1 construct: a vector for expressing an extra cellular domain (ECD) of EphA10 or a FNIII domain of the ECD was produced; made in house; host or cells: Expi293F
T1 sequence (Q5JZY3 34-565 limits assumed): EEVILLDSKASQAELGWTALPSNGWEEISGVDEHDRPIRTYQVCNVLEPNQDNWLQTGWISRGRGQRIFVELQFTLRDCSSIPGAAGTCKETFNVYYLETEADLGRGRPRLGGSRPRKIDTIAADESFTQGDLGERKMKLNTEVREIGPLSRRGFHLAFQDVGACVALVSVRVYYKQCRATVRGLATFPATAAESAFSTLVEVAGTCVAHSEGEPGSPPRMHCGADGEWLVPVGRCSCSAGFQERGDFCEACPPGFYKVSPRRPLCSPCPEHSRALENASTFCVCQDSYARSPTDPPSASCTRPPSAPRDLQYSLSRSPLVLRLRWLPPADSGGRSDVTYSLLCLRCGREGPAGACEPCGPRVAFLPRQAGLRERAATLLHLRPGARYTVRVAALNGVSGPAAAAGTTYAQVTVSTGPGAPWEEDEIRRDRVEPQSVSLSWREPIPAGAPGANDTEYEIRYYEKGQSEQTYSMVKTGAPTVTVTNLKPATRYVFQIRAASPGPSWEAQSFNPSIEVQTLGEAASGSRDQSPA
Procedure: The binding activity to EphA10 of the five EphA10-binding humanized antibodies purified in Example 3 was analyzed by ELISA. Specifically, 4 µg/ml of EphA10 fused with human Fc was diluted with a 0.05 M Na2CO3 (pH 9.6) solution and immobilized in 50 µl of a Flat Bottom Polystyrene High Bind 96-well microplate (costar) at 4°C for 16 hours, and then blocked with 100 µl of 4% skim milk (GenomicBase) at room temperature for 2 hours. […] 50 µl of a 1-Step Ultra TMB-ELISA substrate solution (Thermo Fisher Scientific) was added to develop color, and then added with 50 µl each of 2 M H2SO4 to terminate the reaction, and then analyzed using an Epoch microplate spectrophotometer (BioTek). […]
As the sequencing result, it was confirmed that a free cysteine amino acid that was not involved in disulfide bonds existed in the CDR region of the light chain of the EphA10-specific humanized antibody (FIG. 10). […] To verify this, the binding activities of EphA10-specific humanized antibody 1-1 and EphA10-targeting ADC antibody 1-1 (ADC) after ADC production were analyzed and compared by ELISA.
In Example 8 above, the binding activity to EphA10 of antibodies 1-1-A, 1-1-S, 1-2-A, and 1-2-S, in which the free cysteines present in the light chains of two types of EphA10-specific humanized antibodies 1-1 and 1-2 were substituted with serines and alanines, was analyzed by ELISA. […]

[2] = system: hEphA10 overexpressing cell line; test: Cancer cell killing by cell survival analysis using ATP measurement (CellTiter-Glo); assay type: cell-based, human; conditions: stated as a consequence of the lost EphA10 binding of the ADC (FIG. 11)
Procedure: To confirm the efficacy of ADC in vitro, a cancer cell killing effect was confirmed through cell survival analysis using ATP measurement. Specifically, MDA-MB-231 naive cells (control group), a mock cell line (negative control group), and a hEphA10 overexpressing cell line were dispensed at 2 × 10^4 per well in a 96-well white plate (SPL), respectively, and the following day, the ADC produced in Example 6 was diluted in RPMI (Capricorn) for each concentration, treated by 100 µl per well, and then incubated at 37°C for 48 hours. The ADC-treated plate was incubated at room temperature outside the incubator for 5 minutes, 50 µl of a CellTiter-Glo solution was added to each well, and then the plate was shaken at 500 rpm for 2 minutes. After reacting for 10 minutes on a room temperature bench in a light-blocked state, ATP was measured using a Synergy HTX multimode reader (Biotek).
To verify the effect of two types of EphA10-targeting ADCs A7-MMAE and 2W_MMAE produced using A7 and 2W antibodies, cell viability analysis of cancer cells was performed by measuring ATP as in Example 7-1 above.

B1: 1-1 (ADC) (conjugate)
VH: QVTLKESGPTLVKPTQTLTLTCTFSGFSLSTSGMGVGWIRQPPGKALEWLAHIWWDDVKRYNPALKSRLTITKDTSKNQVVLTMTNMDPVDTATYYCARTSFPAGVDYWGQGTLVTVSS
VL: DVVMTQSPLSLPVTLGQPASISCRSSQSLQNSNGNTCLNWFQQRPGQSPRRLIYRVSNRFSGVPDRFSGSGSGTDFTLKISRVEAEDVGVYYCLQVTHVPFTFGQGTKLEIKR
modifications: non-natural residues
[1]
  EphA10 binding activity of the ADC compared with the antibody before ADC production: greatly reduced
[2]
  in vitro ADC efficacy: greatly reduced

— patent publication EP4692122A1, “HUMANIZED ANTIBODIES TARGETING EPHA10” (priority 2023, dated 2024)
